Data published in patent US5942663A, “Biocidal proteins” (Zeneca Limited, priority 1991, dated 1999).
No end group written: not given here.

How the values were obtained:
[1] = test system: Saccharomyces cerevisiae; experiment: Inhibitory activity against yeast; type: cell-based; set-up: key: +++:complete inhibition; +:some inhibition; -:no inhibition
Procedure: The inhibitory activity of Mj-AMPs against yeast, Saccharomyces cerevisiae was tested. The results shown in Table 5 indicate that Mj-AMPs do inhibit the growth of yeast at concentrations of 500 μg/ml or above.

[2] = test system: Nectria haematococca; type: cell-based; conditions: N haematococca, 48 hours of incubation
[3] = test system: Fusarium culmorum; type: cell-based; conditions: F culmorum, 48 hours of incubation
[4] = test system: Phoma betae; type: cell-based; conditions: P betae, 48 hours of incubation
[5] = test system: Botrytis cinerea; type: cell-based; conditions: B cinerea, 48 hours of incubation
[6] = Isoelectric focusing; type: physicochemical; conditions: isoelectric focusing on Immobiline Dry Strips
Procedure: PAS staining for glycoproteins was done by the method of Zacharius, RM et al (1969; Anal Biochem, 30, 148-152) using ovalbumin (3.2% carbohydrate) as a positive control sample. The pI values of Mj-AMP1 and Mj-AMP2 were determined by isoelectric focusing and found to be about 10.5 for both proteins. Isoelectric focussing was done on precast Immobiline Dry Strips (Pharmacia) using marker proteins in the pI range from 4.7 to 10.6 (Pharmacia).

[7] = test system: Colletotrichum lindemuthianum; type: cell-based; conditions: C lindemuthianum, 48 hours of incubation
[8] = test system: Alternaria brassicola; type: cell-based; conditions: A brassicola, 48 hours of incubation
[9] = test system: Pyricularia oryzae; type: cell-based
[10] = test system: Ascochyta pisi; type: cell-based; conditions: A pisi, 48 hours of incubation
[11] = test system: Erwinia carotovora; experiment: Antibacterial activity in vitro test; type: cell-based; conditions: E carotovora, 48 hours
Procedure: (§1) The antibacterial activity of the Mj-AMPs was tested against a range of gram-positive and gram-negative bacteria: Bacillus megaterium, Sarcina lutea, Escherichia coli and Erwinia carotovora. β-purothionin and UDA were also tested for comparison (see Example 7). Tests were performed in soft agarose medium containing 1% tryptone and, with or without 1 mM CaCl2 and 50 mM KCl. Absorbance, 595 nm, of the culture was measured after 48 hours.

[12] = test system: Bacillus megaterium; experiment: Antibacterial activity in vitro test; type: cell-based; conditions: B megaterium, 48 hours
Procedure: as §1

[13] = test system: Escherichia coli; experiment: Antibacterial activity in vitro test; type: cell-based; conditions: E coli, 48 hours
Procedure: as §1

[14] = test system: Sarcina lutea; experiment: Antibacterial activity in vitro test; type: cell-based; conditions: S lutea, 48 hours
Procedure: as §1

[15] = test system: Venturia inaequalis; type: cell-based; conditions: V inaequalis, 10 days of incubation
[16] = test system: Pyrenophora tritici-repentis; type: cell-based; conditions: P tritici-repentis, 48 hours of incubation
[17] = test system: Fusarium oxysporum f.sp. lycopersici; type: cell-based; conditions: 48 hours of incubation
[18] = test system: Fusarium culmorum; experiment: Stability of the antifungal activity of the Mj-AMPs; type: cell-based
Procedure: Antifungal activity was measured by microspectrophotometry as previously described (Broekaert, WF et al; 1990; FEMS Microbiol Lett, 69, 55-60). Routinely, tests were performed with 20 μl of a (filter-sterilized) test solution and 80 μl of a fungal spore suspension (2×10^4 spores/ml) in half strength Potato Dextrose Broth (Difco). Control microcultures contained 20 μl of (sterile) distilled water and 80 μl of the fungal spore suspension. Unless otherwise stated the test organism was Fusarium culmorum and incubation was done at 25° C. for 48 hours. Percent growth inhibition is defined as 100 times the ratio of the corrected absorbance of the control microculture minus the corrected absorbance of the test microculture over the corrected absorbance at 595 nm of the control microculture. The corrected absorbance values equal the absorbance at 595 nm of the culture measured after 48 hours minus the absorbance at 595 nm measured after 30 min. Values of growth inhibition lower than 10% are not indicated on the chromatograms.
Table 1 summarises the results of further testing of the stability of the antifungal activity of the Mj-AMPs. Tests for antifungal activity were performed with 20 μl samples diluted five-fold with growth medium containing Fusarium culmorum spores (2×10^4 spores/ml), according to the assay method given in Example 2. Control samples contained either Mj-AMP1 at 500 μg/ml or Mj-AMP2 at 100 μg/ml in 10 mM sodium phosphate buffer (pH 7). Reduction was done by addition of DTT at 2.5 mM followed by incubation at 37° C. for 2 hours. pH stability was tested in the following buffers: 20 mM glycine-HCl (pH 2 and 3); 20 mM diethanolamine-HCl (pH 10); and 20 mM glycine-NaOH (pH 11). After 1 hour of incubation in the appropriate buffers the samples were dialyzed for 16 hours against 10 mm sodium phosphate buffer (pH 7). For digestions, proteases were added at 100 μg/ml and incubated at 37° C. for 16 hours.

[19] = test system: Fusarium oxysporum f.sp. pisi; type: cell-based; conditions: 48 hours of incubation
[20] = test system: Verticillium dahliae; type: cell-based; conditions: V dahliae, 48 hours of incubation
[21] = MEDIUM +Ca/K (1 mM CaCl2 and 50 mM KCl)

In the case of “Mj-AMP2: antimicrobial protein from Mirabilis jalapa seeds, dimer of two 3.5 kDa subunits, 36 residues, SEQ ID NO:2 (CIGNGGRCNENVGPPYCCSGFCLRQPNQGYGVCRNR; cysteine pairing not given here; also: homodimer)”, the “Inhibitory activity against yeast” value ([1]; with Ca/K, 5 μg/ml) is reported as “-”, the “Inhibitory activity against yeast” value ([1]; with Ca/K, 50 μg/ml) is reported as “+++” and the “Inhibitory activity against yeast” value ([1]; with Ca/K, 500 μg/ml) is reported as “+++”. For the same molecule, the “Inhibitory activity against yeast” value ([1]; without Ca/K, 5 μg/ml) was “+++”, the “Inhibitory activity against yeast” value ([1]; without Ca/K, 50 μg/ml) was “+++” and the “Inhibitory activity against yeast” value ([1]; without Ca/K, 500 μg/ml) was “+++”. The IC50 [2] was 0.5 µg/mL, the IC50 [3] was 3 µg/mL and the IC50 [4] was 6 µg/mL. The IC50 [5] was 2 µg/mL, the pI [6] was “about 10.5” and the IC50 [7] was 1 µg/mL. For the same molecule, the IC50 [8] was 6 µg/mL, the IC50 [9] was 0.5 µg/mL and the IC50 [10] was 6 µg/mL. The IC50 [11, 21] was greater than 500 µg/mL, the IC50 ([11]; MEDIUM -Ca/K) was greater than 500 µg/mL and the IC50 [12, 21] was 10 µg/mL. It also gave an IC50 ([12]; MEDIUM -Ca/K) of 2 µg/mL, an IC50 [13, 21] greater than 500 µg/mL and an IC50 ([13]; MEDIUM -Ca/K) greater than 500 µg/mL. For the same molecule, the IC50 [14, 21] was greater than 500 µg/mL, the IC50 ([14]; MEDIUM -Ca/K) was 50 µg/mL and the IC50 [15] was 1 µg/mL. For the same molecule, the IC50 [16] was 20 µg/mL, the IC50 [17] was 10 µg/mL and the “Relative antifungal activity (shown as % of control activity)” value ([18]; 80° C., 10 min) was 100 % of control activity. The “Relative antifungal activity (shown as % of control activity)” value ([18]; 90° C., 10 min) was 100 % of control activity, the “Relative antifungal activity (shown as % of control activity)” value ([18]; 100° C., 10 min) was 100 % of control activity and the “Relative antifungal activity (shown as % of control activity)” value ([18]; Chymotrypsin digestion, 100 μg/ml, 37° C., 16 hours) was 50 % of control activity. The “Relative antifungal activity (shown as % of control activity)” value ([18]; Control: Mj-AMP1 500 μg/ml or Mj-AMP2 100 μg/ml in 10 mM sodium phosphate buffer pH 7) was 100 % of control activity, the “Relative antifungal activity (shown as % of control activity)” value ([18]; Pronase E digestion, 100 μg/ml, 37° C., 16 hours) was 25 % of control activity and the “Relative antifungal activity (shown as % of control activity)” value ([18]; Proteinase K digestion, 100 μg/ml, 37° C., 16 hours) was 100 % of control activity. For the same molecule, the “Relative antifungal activity (shown as % of control activity)” value ([18]; Reduction: DTT 2.5 mM, 37° C., 2 hours) was < 3 % of control activity, the “Relative antifungal activity (shown as % of control activity)” value ([18]; Trypsin digestion, 100 μg/ml, 37° C., 16 hours) was 100 % of control activity and the “Relative antifungal activity (shown as % of control activity)” value ([18]; pH 2, 60 min) was 100 % of control activity. The “Relative antifungal activity (shown as % of control activity)” value ([18]; pH 3, 60 min) was 100 % of control activity, the “Relative antifungal activity (shown as % of control activity)” value ([18]; pH 10, 60 min) was 100 % of control activity and the “Relative antifungal activity (shown as % of control activity)” value ([18]; pH 11, 60 min) was 100 % of control activity. For the same molecule, the “Sensitivity to protease (in words)” value ([18]; pronase E) was “most sensitive”, the IC50 [19] was 5 µg/mL and the IC50 [20] was 0.5 µg/mL.

B1: UDA: known antifungal protein isolated from stinging nettle (Urtica dioica) rhizomes (protein, UniProt P11218 24-372, looked up)
Lectin/endochitinase 1: QRCGSQGGGGTCPALWCCSIWGWCGDSEPYCGRTCENKCWSGERSDHRCGAAVGNPPCGQDRCCSVHGWCGGGNDYCSGSKCQYRCSSSVRGPRVALSGNSTANSIGNVVVTEPLFDQMFSHRKDCPSQGFYSYHSFLVAAESFPAFGTIGDVATRKREVAAFLAHISQATSGERSDVENPHAWGLCHINTTTVTENDFCTSSDWPCAAGKKYSPRGPIQLTHNFNYGLAGQAIGEDLIQNPDLVEKDPIISFKTALWFWMSQHDNKPSCHDIVLNANSAANRIPNKGVIGNIISRAFGHDDFAVRSSSIGFYKRYCDMLGVSYGHDLKYWFDNTPSSEFQRIQMRVAA
For B1, the IC50 [2] was 200 µg/mL, the IC50 [3] was > 1,000 μg/ml and the IC50 [4] was 50 µg/mL. For the same molecule, the IC50 [5] was > 1,000 μg/ml, the IC50 [7] was 20 µg/mL and the IC50 [8] was 200 µg/mL. The IC50 [10] was 1,000 μg/ml, the IC50 [11, 21] was greater than 500 µg/mL and the IC50 ([11]; MEDIUM -Ca/K) was greater than 500 µg/mL. For the same molecule, the IC50 [12, 21] was greater than 500 µg/mL, the IC50 ([12]; MEDIUM -Ca/K) was 250 µg/mL and the IC50 [13, 21] was greater than 500 µg/mL. It also gave an IC50 ([13]; MEDIUM -Ca/K) greater than 500 µg/mL, an IC50 [14, 21] greater than 500 µg/mL and an IC50 ([14]; MEDIUM -Ca/K) greater than 500 µg/mL. The IC50 [15] was 1,000 μg/ml, the IC50 [16] was 200 µg/mL and the IC50 [19] was > 1,000 μg/ml. It also gave an IC50 [20] of 80 µg/mL.
